What was measured:
[1] = molecular target: T1, Doc (UniProt Q06259 1-126); assay: ITC
T1 sequence: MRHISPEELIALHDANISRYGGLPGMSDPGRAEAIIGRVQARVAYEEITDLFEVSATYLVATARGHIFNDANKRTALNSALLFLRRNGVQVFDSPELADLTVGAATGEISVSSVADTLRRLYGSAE

[2] = molecular target: T2, Doc (wild type), toxin of the doc/phd toxin/antitoxin module (UniProt Q06259 1-126); assay: ITC
T2 sequence: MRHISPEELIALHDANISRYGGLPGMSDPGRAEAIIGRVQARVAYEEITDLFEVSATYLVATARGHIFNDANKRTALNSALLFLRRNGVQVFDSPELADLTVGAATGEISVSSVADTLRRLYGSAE

Does LDAEFASLFDTLDSTNKELVNR (domain or fragment) [Phd^52-73] bind [1]?
Result: binds

Does LDAEFASLFDTLDSTNKELVNR [antitoxin domain of Phd (residues 52-73)] bind [2]?
Result: binds

Source: paper PMC3836179 (Nature chemical biology, 2013)
